Sequences and labels used below:
B1: nuclear coactivator binding domain (NCBD) of CBP (residues 2059–2117) (domain or fragment, mouse, UniProt P45481 2059-2117, looked up)
chain: PPRSISPSALQDLLRTLKSPSSPQQQQQVLNILKSNPQLMAAFIKQRTAKYVANQPGMQ

Assay [1] deals with p53(1–61), full-length transactivation domain (TAD) of human p53 (human, UniProt P04637 1-61). Description: ITC + NMR titration.
In assay [2] the target is B1. Put plainly: ITC.
In assay [3] the target is B1. Put plainly: ITC + NMR titration.

Here are results for 3 molecules from PMC2982890 (Biochemistry, 2010).

Turning to B1, in assay [1], the binding result was “binds”.
In assay [2], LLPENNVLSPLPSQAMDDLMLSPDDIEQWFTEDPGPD (domain or fragment, human, UniProt P04637 25-61, looked up) [p53(25–61)] showed a dissociation constant (Kd) of 5.4 ± 1.8 µM and a dH of -4.12 ± 0.46 kcal/mol. In addition, the “fold weaker binding than p53(1–61)” value in assay [3] is 2 to 3 fold.
Take LSQETFSDLWKLLPE (peptide, UniProt P04637 14-28, looked up) [p53(14–28), isolated AD1 peptide]: the “fold weaker binding than p53(1–61)” value in assay [3] was approximately 170 fold.
